From the supplement of paper PMC9732359
± gives the uncertainty stated by the source.

Experiment: protein stability index of a GFP-peptide fusion (yeast GPS) (PSI 1-4); higher = more stable; sorted into four equal gates, so the index is relative within each strain
Conditions: doa10∆
In short: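 The protein stability index combines read frequencies across sorting gates, each weighted by its gate number and then summed. To obtain those frequencies, a pooled yeast library of GFP fusions to tiled 17-residue yeast protein peptides, on a plasmid also expressing Cherry, was grown to mid-log phase in leucine-free medium. The cells were sorted into four equal gates by GFP/Cherry ratio before plasmid amplification by PCR and Illumina sequencing.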

SAIEHTTLKSVTIASEI [RPO21] gave a protein stability index of 2.54 ± 0.085.

Same assay, conditions: pdr5∆

Going from RAVANRTDATFIRVIGS [RPT1] to RCMMAAQYFYSGAYSYP [DIS3], the protein stability index falls from 3.26 ± 0.069 to 2.31 ± 0.11.

Going from RCWKANIPWDVPGMPAP [PRP8] to RDCIDISIFSTPGSVSL [PRP8], the protein stability index rises from 1.5 ± 0.077 to 2.88 ± 0.11.

First: RDGVLTVTLNKNREVVQ [RRP45]
Second: RDRKLITDKGTVDGRLY [YJL039C/NUP192]
The protein stability index of the first is lower: 2.93 ± 0.11 for the first, 3.22 ± 0.074 for the second.

RDRTSGQKLLAIKYGYE [SRB4] and RDVELSSDELKVIEEQL [SMC4] are within error of each other in protein stability index: 3.17 ± 0.11 for the first, 3.25 ± 0.072 for the second.

Going from REAIRPGHEMEDFLDKS [AAR2] to REDTPLSQNESTRASTV [ISW2], the protein stability index rises from 2.87 ± 0.056 to 3.11 ± 0.058.

REHSLQLFRTNKVQIMI [PRP28] and REKNALKRLAWQYIVID [ISW2] are within error of each other in protein stability index: 1.75 ± 0.065 for the first, 1.74 ± 0.14 for the second.

Compared with REKRAREKAEAEAEKKK [RPL13A], RENIAMLKRFFPGVKGL [SMC1] is lower in protein stability index: 3.62 ± 0.13 for the first, 2.49 ± 0.2 for the second.

Compared with RERRIHVTQEDFELAVG [RPT6], REYLEEYKSLFVVGVDN [RPP0] is lower in protein stability index: 2.74 ± 0.06 for the first, 2.55 ± 0.087 for the second.

Going from RFEVINNETEQLKAEEK [SMC1] to RFNHLVTRLFFICSIIQ [YML031W/NDC1], the protein stability index falls from 2.06 ± 0.092 to 1.29 ± 0.039.

RFRKAQCPIIERLTNSL [RPS5] and RFSYSPPKEGNYEIVFD [YMR129W/POM152] are within error of each other in protein stability index: 2.82 ± 0.26 for the first, 3.24 ± 0.18 for the second.

Going from RFWSFMKTQRFVSNMGF [SIR4] to RGEIREIEQVCKQVHDK [MED7], the protein stability index rises from 1.4 ± 0.11 to 3.27 ± 0.046.

RGFGKINKQRVPLSDNA [RPL7A] and RGGGHHSFEDAHTPMLQ [FAS1] are within error of each other in protein stability index: 3.5 ± 0.11 for the first, 3.48 ± 0.21 for the second.

Compared with RGLTPQEFFFHAMGGRE [RPO21], RGVRPYKHIDASGSINR [RPS19A] is higher in protein stability index: 2.42 ± 0.054 for the first, 3.42 ± 0.1 for the second.

Compared with RHHWQYTKASLAKERQK [SSN8], RHMALLVDVMTTQGGLT [RPO21] is higher in protein stability index: 1.66 ± 0.07 for the first, 2.38 ± 0.092 for the second.

First: RHNKSHTLCNRCGRRSF [RPL37A]
Second: RHSNALVDILPPDSDSS [RPT3]
The protein stability index of the first is higher: 3.18 ± 0.064 for the first, 2.65 ± 0.067 for the second.

RIFKITEKLSPLASEES [YGL100W/SEH1] and RIGKHRKHPGGRGMAGG [RPL28] are within error of each other in protein stability index: 2.5 ± 0.055 for the first, 2.63 ± 0.24 for the second.

First: RIHTNDNDIMNLGSRTK [SSN3]
Second: RIIEKSVRRSGALDVEG [RRP45]
The protein stability index of the first is higher: 2.97 ± 0.043 for the first, 2.65 ± 0.075 for the second.

First: RILSTLDRELLKPSMSV [RPT3]
Second: RIYTNSFIDIMEVLGIE [RPO21]
The protein stability index of the first is lower: 2.73 ± 0.11 for the first, 2.94 ± 0.052 for the second.

Going from RKANREEKLKANKEKKR [RPL24B] to RKKKFVLDVDPKYAKQK [ISW2], the protein stability index rises from 1.96 ± 0.065 to 2.45 ± 0.066.

Going from RKWAARAASAKIESSVE [RPS8A] to RKYEISFGKIYVTKPMV [RPB2], the protein stability index falls from 3.2 ± 0.062 to 2.44 ± 0.21.

RLAKKPSMKKIKIEPSA [SIR3] and RLGFFYNDQLYVKEKLE [RPN7] are within error of each other in protein stability index: 3.06 ± 0.099 for the first, 3.13 ± 0.19 for the second.

Going from RLISQSLLASKSTYRTP [RIP1] to RLMMNSKVGSADTGRDD [RPN11], the protein stability index rises from 3.04 ± 0.21 to 3.36 ± 0.068.

First: RLNYLYQISAYQTRARQ [RPR2]
Second: RLQAKRLKDVEWVKLHR [RMP1]
The protein stability index of the first is lower: 1.84 ± 0.037 for the first, 3.09 ± 0.076 for the second.

First: RLQQGRRLPMTMFTAEQ [SNF2]
Second: RLRKRVTIIPLDKIYTR [SMC2]
The protein stability index of the first is higher: 3.19 ± 0.048 for the first, 1.66 ± 0.095 for the second.

RLTMGNVFTPEISSQIE [RRI2] and RLWLKKVMEEEEQDCKC [POP8] are within error of each other in protein stability index: 3.06 ± 0.079 for the first, 2.9 ± 0.084 for the second.

For RMPIMLRSNKCILYDAD [RET1], the protein stability index was 1.41 ± 0.11.
